In the data set the target is T1, mini-cellulose-binding protein A (mCbpA), P38058.
T1 chain: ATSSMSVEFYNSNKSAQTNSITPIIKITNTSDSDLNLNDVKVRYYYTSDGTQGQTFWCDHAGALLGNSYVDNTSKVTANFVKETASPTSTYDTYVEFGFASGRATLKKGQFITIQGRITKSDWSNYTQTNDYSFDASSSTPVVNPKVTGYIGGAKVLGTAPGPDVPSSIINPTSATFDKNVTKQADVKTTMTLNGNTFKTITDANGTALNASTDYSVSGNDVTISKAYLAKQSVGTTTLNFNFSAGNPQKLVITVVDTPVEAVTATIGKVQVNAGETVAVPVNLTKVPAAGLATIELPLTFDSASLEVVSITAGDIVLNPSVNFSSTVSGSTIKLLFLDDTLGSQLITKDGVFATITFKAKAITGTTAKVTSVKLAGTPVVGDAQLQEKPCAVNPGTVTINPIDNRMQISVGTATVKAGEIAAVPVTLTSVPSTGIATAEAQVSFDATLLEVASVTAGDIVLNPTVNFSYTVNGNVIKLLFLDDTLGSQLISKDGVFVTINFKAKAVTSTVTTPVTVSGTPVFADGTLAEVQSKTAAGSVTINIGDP

The record followed here is patent US20200190501.

B1: dockerin-fused chimeric beta-agarase AgaB (AgaB-Doc) (protein)
chain: GDNSKFDSATDLPVEQEQEQETEQEGEPEESSEQDLVEEVDWKDIPVPADAGPNMKWEFQEISDNFEYEAPADNKGSEFLEKWDDFYHNAWAGPGLTEWKRDRSYVADGELKMWATRKPGSDKINMGCITSKTRVVYPVYIEARAKVMNSTLASDVWLLSADDTQEIDILEAYGADYSESAGKDHSYFSKKVHISHHVFIRDPFQDYQPKDAGSWFEDGTVWNKEFHRFGVYWRDPWHLEYYIDGVLVRTVSGKDIIDPKHFTNTTDPGNTEIDTRTGLNKEMDIIINTEDQTWRSSPASGLQSNTYTPTDNELSNIENNTFGVDWIRIYKPVEKVNKDGKVNAIDYAVLKSILLGTNTNVDLSVSDMNKDGKVNALDLAVLKKMLLS
In the case of B1, the “degradation activity using purified agar as a substrate” value was “the degradation activity increased in the order of agarase, agarase-expansin, and agarase-expansin-mCbpA”.
